Where a chain is given by its changes, count along the chain named.

Here are results for two molecules from patent US12514920B1, “Respiratory syncytial virus mRNA vaccine, and preparation method therefor and use thereof” (Hangzhou Tianlong Pharmaceutical Co., Ltd., priority 2024, dated 2026).

Data set [1] relates to RSV pre-F antibody (3C12). Type of data set: physicochemical. To be noted: for stability under the stress tests (in words): all stress tests, binding to 3C12, ELISA; for Stress resistance parameter, Osmotic pressure (mM) 3000: high osmotic pressure 3000 mM; for Stress resistance parameter, Osmotic pressure (mM) 3000 / Stress resistance parameter, Osmotic pressure (mM) 10: room temperature; for Stress resistance parameter, Osmotic pressure (mM) 3000 / Stress resistance parameter, Osmotic pressure (mM) 10 / Stress resistance parameter, pH 3.5 / Stress resistance parameter, pH 10: 60 min; for Stress resistance parameter, Osmotic pressure (mM) 3000 / Stress resistance parameter, Temperature (° C.) 50 / Stress resistance parameter, Osmotic pressure (mM) 10 / Stress resistance parameter, pH 3.5 / Stress resistance parameter, pH 10 / Stress resistance parameter, Temperature (° C.) 4: ELISA binding to 3C12; for Stress resistance parameter, Temperature (° C.) 50: incubation at 50° C. for 60 min; for Stress resistance parameter, Osmotic pressure (mM) 10: low osmotic pressure 10 mM; for Stress resistance parameter, pH 3.5: pH 3.5, room temperature; for Stress resistance parameter, pH 10: pH 10, room temperature; for Stress resistance parameter, Temperature (° C.) 4: storage at 4° C. for one week. The method in brief: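 RSV F mRNA-vaccine mutants stress-treated: 4° C. for one week, 50° C. for 60 min, low or high osmotic pressure at room temperature for 60 min, acid or base at room temperature for 60 min. Binding to 3C12 (epitope Φ) then measured by ELISA against pre-F trimer standard, HRP anti-human IgG, OD 450/630 nm.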

The next data set concerns RSV F antibody (11A9). Description: ELISA binding of RSV F antigen mutants, epitope II. The note with it: for Binding amount to antibody/binding amount of PC-RSV-064 to antibody, Epitope II: antibody 11A9, relative to PC-RSV-064. As for the experimental part: (§1) To investigate the binding of the RSV F antigen mutants to antibodies recognizing different epitopes, the binding amount was determined by an ELISA method in this example.
(§2) • 293T cells (purchased from ATCC cell bank); • Primary antibody: RSV pre-F antibody (3C12), epitope ([…] (Novoprotein, Cat. No.: DA101); • RSV pre-F antibody (7H11), epitope Quaternary (Novoprotein, Cat. No.: DA109); • RSV F antibody (11A9), epitope II (Novoprotein, Cat. No.: DA091); • RSV F antibody (4B9), epitope III (Novoprotein, Cat. No.: DA110); • RSV pre-F antibody (7E11), epitope V (Cat. No.: DA119); • Standard: RSV-pre-F trimer protein (Novoprotein, Cat. No.: DRA230); • Secondary antibody: peroxidase AffiniPure goat anti-human IgG (H+L) (Yeasen, Cat. No.: N/A); • Experimental group: mRNA vaccines after screening in Example 5;
(§3) Cell culture and transfection, and protein sample preparation: the experimental procedures were the same as in Example 3.
(§4) Detection of antigen expression by ELISA: the experimental procedures were the same as in Example 5.
(§5) In the present application, the binding of different mutant antigens to antibodies recognizing different epitopes was detected by ELISA, and the strength of the binding of the antigens to the antibodies was measured by the binding amount. (1) The RSV pre-F antibody (3C12) recognizing the epitope Φ binds only to the F protein in the pre-fusion conformation; (2) the RSV pre-F antibody (7H11) recognizes the epitope Quaternary (spanning both epitopes IV and V) and specifically binds to the F protein in the pre-fusion conformation; (3) the RSV F antibody (11A9) recognizing the epitope II can recognize both the pre-fusion and post-fusion conformations of the F protein; (4) the RSV F antibody […] recognizing the epitope III preferentially recognizes the pre-fusion conformation and has relatively weak binding activity for the post-fusion conformation; (5) the RSV pre-F antibody (7E11) recognizing the epitope V binds only to the F protein in the pre-fusion conformation.
Background: In an ELISA, binding on a coated surface is turned into a signal by an enzyme label.

In data set [2] the test system is RSV pre-F antibody (7H11). Description: ELISA binding of RSV F antigen mutants, epitope Quaternary. To be noted: for Binding amount to antibody/binding amount of PC-RSV-064 to antibody, Epitope Quaternary: antibody 7H11, relative to PC-RSV-064. Here is the method:
as §1, §2, §3, §4, §5

The next data set relates to RSV F antibody (4B9). Description: ELISA binding of RSV F antigen mutants, epitope III. The note with it: for Binding amount to antibody/binding amount of PC-RSV-064 to antibody, Epitope III: antibody 4B9, relative to PC-RSV-064. As for the experimental part: as §1, §2, §3, §4, §5

B1: YK-RSV-055 (protein)
chain: QNITEEFYQSTCSAVSKGYLGALRTGWYTSVITIELSNIKENKCNGTDAKVKLIKQELDKYKNAVTDLQLLMQSTPATGSGSCIASGVAVSKVLHLEGEVNKIKSALLSTNKAVVSLSNGVSVLTFKVLDLKNYIDKQLLPILNKQSCSIPNIETVIEFQQKNNRLLEITREFSVNAGVTTPVSTYMLTNSELLSLINDMPITNDQKKLMSNNVQIVRQQSYSIMSICKEEVLAYVVQLPLYGVIDTPCWKLHTSPLCTTNTKEGSNICLTRTDRGWYCDNAGSVSFFPQAETCKVQSNRVFCDTMNSRTLPSEVNLCNVDIFNPKYDCKIMTSKTDVSSSVITSLGAIVSCYGKTKCTASNKNRGIIKTFSNGCDYVSNKGVDTVSVGNTLYYVNKQEGQSLYVKGEPIINFYDPLVFPSDEFDASISQVNEKINQSLAFIRKSDELLHNVNAGKSTTNIMITTIIIVIIVILLSLIAVGLLLY
For the molecule B1, in data set [1], the “stability under the stress tests (in words)” value is reported as “superior stability”; the “Stress resistance parameter, Osmotic pressure (mM) 3000” value is reported as 0.71 ± 0.23; the “Stress resistance parameter, Temperature (° C.) 50” value was 0.78 ± 0.19; the “Stress resistance parameter, Osmotic pressure (mM) 10” value is given as 0.72 ± 0.20. Further, in data set [1], the “Stress resistance parameter, pH 3.5” value was 0.69 ± 0.08; the “Stress resistance parameter, pH 10” value is listed as 0.79 ± 0.26; the “Stress resistance parameter, Temperature (° C.) 4” value is listed as 0.48 ± 0.11. In addition, in the data set with RSV F antibody (11A9), the “ELISA binding amount, Epitope II, RSV F antibody (11A9)” value amounted to 3856 ng/mL and the “Binding amount to antibody/binding amount of PC-RSV-064 to antibody, Epitope II” value turned out to be 1.84. Moreover, in data set [2], the “ELISA binding amount, Epitope Quaternary, RSV pre-F antibody (7H11)” value is 4317 ng/mL and the “Binding amount to antibody/binding amount of PC-RSV-064 to antibody, Epitope Quaternary” value was 1.20. In addition, in the data set with RSV F antibody (4B9), the “ELISA binding amount, Epitope III, RSV F antibody (4B9)” value stood at 7298 ng/mL and the “Binding amount to antibody/binding amount of PC-RSV-064 to antibody, Epitope III” value is recorded as 2.54.

B2: YK-RSV-057 (protein)
chain: B1 chain with I227C, C228I
Turning to B2, in data set [1], the “stability under the stress tests (in words)” value is on record as “superior stability”; the “Stress resistance parameter, Osmotic pressure (mM) 3000” value turned out to be 0.64 ± 0.15; the “Stress resistance parameter, Temperature (° C.) 50” value came out at 0.64 ± 0.17; the “Stress resistance parameter, Osmotic pressure (mM) 10” value was found to be 0.70 ± 0.07. In addition, in data set [1], the “Stress resistance parameter, pH 3.5” value is listed as 0.56 ± 0.08; the “Stress resistance parameter, pH 10” value was found to be 0.56 ± 0.09; the “Stress resistance parameter, Temperature (° C.) 4” value is recorded as 0.61 ± 0.10. In the data set on RSV F antibody (11A9), the “ELISA binding amount, Epitope II, RSV F antibody (11A9)” value amounted to 2823 ng/mL and the “Binding amount to antibody/binding amount of PC-RSV-064 to antibody, Epitope II” value came to 1.34. Further, in data set [2], the “ELISA binding amount, Epitope Quaternary, RSV pre-F antibody (7H11)” value was 6346 ng/mL and the “Binding amount to antibody/binding amount of PC-RSV-064 to antibody, Epitope Quaternary” value stood at 1.76. In the data set with RSV F antibody (4B9), the “ELISA binding amount, Epitope III, RSV F antibody (4B9)” value is 4779 ng/mL and the “Binding amount to antibody/binding amount of PC-RSV-064 to antibody, Epitope III” value is reported as 1.67.
